Experimental data published in article PMC7261193, “The ancillary N-terminal region of the yeast AP-1 transcription factor Yap8 contributes to its DNA binding specificity”.

How the values were obtained:
Conditions in all cases: protein: recombinant; tags: GST (N-term); chain copies: 2; label: 5' FAM; blunt
[1] = target: T1, GST-Yap8-N20A (Saccharomyces cerevisiae, UniProt Q06596 1-294, N20A); assay: fluorescence anisotropy; series a; FA: 10 mM Tris-HCl pH 8, 50 mM NaCl, 0.5% NP-40, 1 mM DTT, 5% glycerol, 1 nM DNA, 25C (half volume protein elution buffer). Biotin EMSA: LightShift 1x buffer, 50 ng poly(dI-dC), 2.5% glycerol, 0.05% NP-40, 5 mM MgCl2, 20 fmol probe, RT 20 min. 32P EMSA: 10 mM Tris-HCl pH 8.0, 50 mM NaCl, 1 mM DTT, 0.05% NP-40, 100 ng poly(dI-dC), 6% glycerol, 4C 30 min
T1 sequence: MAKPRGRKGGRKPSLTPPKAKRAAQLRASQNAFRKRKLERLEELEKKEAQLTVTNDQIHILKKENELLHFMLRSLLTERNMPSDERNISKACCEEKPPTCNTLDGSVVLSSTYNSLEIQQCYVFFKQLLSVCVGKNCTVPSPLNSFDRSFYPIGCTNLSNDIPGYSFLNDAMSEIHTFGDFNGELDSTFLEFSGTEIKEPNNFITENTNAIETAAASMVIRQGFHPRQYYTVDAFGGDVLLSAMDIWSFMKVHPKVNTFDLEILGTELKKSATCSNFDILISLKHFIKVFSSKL

[2] = target: T2, GST-Yap8 WT (Saccharomyces cerevisiae, UniProt Q06596 1-294); assay: as above
T2 sequence: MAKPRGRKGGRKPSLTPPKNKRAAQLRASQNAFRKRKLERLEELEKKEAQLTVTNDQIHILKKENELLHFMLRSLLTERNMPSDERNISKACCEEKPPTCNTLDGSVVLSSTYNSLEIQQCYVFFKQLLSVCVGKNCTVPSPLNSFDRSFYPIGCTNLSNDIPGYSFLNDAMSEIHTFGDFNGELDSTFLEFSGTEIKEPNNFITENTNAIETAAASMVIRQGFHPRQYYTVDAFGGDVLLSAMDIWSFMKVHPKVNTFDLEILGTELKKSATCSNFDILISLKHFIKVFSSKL

[3] = target: T3, GST-Yap8-R7A (Saccharomyces cerevisiae, UniProt Q06596 1-294, R7A); assay: fluorescence anisotropy; series b; FA: 10 mM Tris-HCl pH 8, 50 mM NaCl, 0.5% NP-40, 1 mM DTT, 5% glycerol, 1 nM DNA, 25C (half volume protein elution buffer). Biotin EMSA: LightShift 1x buffer, 50 ng poly(dI-dC), 2.5% glycerol, 0.05% NP-40, 5 mM MgCl2, 20 fmol probe, RT 20 min. 32P EMSA: 10 mM Tris-HCl pH 8.0, 50 mM NaCl, 1 mM DTT, 0.05% NP-40, 100 ng poly(dI-dC), 6% glycerol, 4C 30 min
T3 sequence: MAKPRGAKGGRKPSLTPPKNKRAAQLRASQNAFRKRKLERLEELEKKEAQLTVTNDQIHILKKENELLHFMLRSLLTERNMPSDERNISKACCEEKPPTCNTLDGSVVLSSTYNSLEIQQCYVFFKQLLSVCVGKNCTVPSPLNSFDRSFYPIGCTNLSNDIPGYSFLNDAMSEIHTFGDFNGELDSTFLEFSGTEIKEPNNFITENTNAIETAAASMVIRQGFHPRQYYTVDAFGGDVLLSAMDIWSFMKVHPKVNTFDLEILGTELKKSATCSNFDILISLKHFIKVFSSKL

[4] = target: T2, GST-Yap8 WT; assay: as above
[5] = target: T4, GST-Yap8-R11A (Saccharomyces cerevisiae, UniProt Q06596 1-294, R11A); assay: as above
T4 sequence: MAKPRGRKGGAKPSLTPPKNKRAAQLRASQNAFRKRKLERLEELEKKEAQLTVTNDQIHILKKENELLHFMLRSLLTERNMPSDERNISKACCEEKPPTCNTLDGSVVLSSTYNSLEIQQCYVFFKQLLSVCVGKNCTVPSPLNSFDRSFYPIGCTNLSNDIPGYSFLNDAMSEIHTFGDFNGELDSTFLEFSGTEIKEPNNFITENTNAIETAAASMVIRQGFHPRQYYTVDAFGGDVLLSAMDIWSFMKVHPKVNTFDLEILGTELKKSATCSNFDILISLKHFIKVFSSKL

[6] = target: T2, GST-Yap8 WT; assay: fluorescence anisotropy; series c; FA: 10 mM Tris-HCl pH 8, 50 mM NaCl, 0.5% NP-40, 1 mM DTT, 5% glycerol, 1 nM DNA, 25C (half volume protein elution buffer). Biotin EMSA: LightShift 1x buffer, 50 ng poly(dI-dC), 2.5% glycerol, 0.05% NP-40, 5 mM MgCl2, 20 fmol probe, RT 20 min. 32P EMSA: 10 mM Tris-HCl pH 8.0, 50 mM NaCl, 1 mM DTT, 0.05% NP-40, 100 ng poly(dI-dC), 6% glycerol, 4C 30 min

B1: ACR3-WT (FAM) (dsDNA)
DNA 1: CTTTTTGTTTGATTAATAATCAACTTTAGCG
DNA 2: CGCTAAAGTTGATTATTAATCAAACAAAAAG
Q: How did the Kd [1] turn out when B1 was run?
A: 25.5 ± 4.3 nM

Q: And the Kd [2]?
A: 9.9 ± 1.4 nM

Q: And the Kd [3]?
A: 13.4 ± 1.7 nM

Q: What about the Kd [4] of the same binder?
A: 10.8 ± 1.7 nM

Q: And the Kd [5]?
A: 18.9 ± 2.9 nM

Q: What about the Kd [6] of the same binder?
A: 10.8 ± 3.5 nM
